The record followed here is US20080096219A1.

The assay deals with horseradish peroxidase-conjugated IgG (Wako Pure Chemical Industries, Ltd.). The assay is described as follows: protein A immobilized on a platinum microelectrode (-100 mV), incubated with 0.5 mg/ml HRP-conjugated IgG, peroxidase luminescence read by luminometer.

In turn, polyhistidine-fused protein A returned an amount of luminescence of 1.4e+10 cps.
